Test results: patent publication US20250242041A1 (Seagen, published 2025)

T1: human αvβ6 on 293F:huβ6 cells (human, UniProt P06756 31-1048; P18564 22-788)
T1 chain 1: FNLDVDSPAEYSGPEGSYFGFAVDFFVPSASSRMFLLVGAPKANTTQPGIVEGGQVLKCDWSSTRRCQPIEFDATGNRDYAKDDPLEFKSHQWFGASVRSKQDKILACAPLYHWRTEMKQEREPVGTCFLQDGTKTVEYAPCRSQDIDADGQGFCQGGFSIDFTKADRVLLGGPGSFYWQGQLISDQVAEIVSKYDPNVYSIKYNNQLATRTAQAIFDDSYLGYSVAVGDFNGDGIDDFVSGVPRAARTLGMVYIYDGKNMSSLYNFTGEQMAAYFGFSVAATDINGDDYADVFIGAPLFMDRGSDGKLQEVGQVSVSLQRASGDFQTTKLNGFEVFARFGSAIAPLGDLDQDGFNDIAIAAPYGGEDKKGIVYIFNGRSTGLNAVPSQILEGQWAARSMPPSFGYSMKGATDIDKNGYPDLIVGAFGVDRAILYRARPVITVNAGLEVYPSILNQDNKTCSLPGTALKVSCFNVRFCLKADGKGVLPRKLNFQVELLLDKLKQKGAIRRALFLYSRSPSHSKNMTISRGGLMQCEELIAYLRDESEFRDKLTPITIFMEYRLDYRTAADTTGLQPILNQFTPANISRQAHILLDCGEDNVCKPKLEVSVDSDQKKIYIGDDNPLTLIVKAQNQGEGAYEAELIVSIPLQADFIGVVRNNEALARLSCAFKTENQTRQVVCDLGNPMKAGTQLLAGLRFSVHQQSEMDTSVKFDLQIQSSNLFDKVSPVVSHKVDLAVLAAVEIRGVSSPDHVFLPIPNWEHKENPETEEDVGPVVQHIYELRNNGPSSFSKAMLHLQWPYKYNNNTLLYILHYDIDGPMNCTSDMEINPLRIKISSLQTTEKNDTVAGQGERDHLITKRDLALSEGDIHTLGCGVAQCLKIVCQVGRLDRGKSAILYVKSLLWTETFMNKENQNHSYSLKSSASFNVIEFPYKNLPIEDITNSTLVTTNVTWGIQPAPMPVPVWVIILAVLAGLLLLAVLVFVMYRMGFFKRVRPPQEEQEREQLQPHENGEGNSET
T1 chain 2: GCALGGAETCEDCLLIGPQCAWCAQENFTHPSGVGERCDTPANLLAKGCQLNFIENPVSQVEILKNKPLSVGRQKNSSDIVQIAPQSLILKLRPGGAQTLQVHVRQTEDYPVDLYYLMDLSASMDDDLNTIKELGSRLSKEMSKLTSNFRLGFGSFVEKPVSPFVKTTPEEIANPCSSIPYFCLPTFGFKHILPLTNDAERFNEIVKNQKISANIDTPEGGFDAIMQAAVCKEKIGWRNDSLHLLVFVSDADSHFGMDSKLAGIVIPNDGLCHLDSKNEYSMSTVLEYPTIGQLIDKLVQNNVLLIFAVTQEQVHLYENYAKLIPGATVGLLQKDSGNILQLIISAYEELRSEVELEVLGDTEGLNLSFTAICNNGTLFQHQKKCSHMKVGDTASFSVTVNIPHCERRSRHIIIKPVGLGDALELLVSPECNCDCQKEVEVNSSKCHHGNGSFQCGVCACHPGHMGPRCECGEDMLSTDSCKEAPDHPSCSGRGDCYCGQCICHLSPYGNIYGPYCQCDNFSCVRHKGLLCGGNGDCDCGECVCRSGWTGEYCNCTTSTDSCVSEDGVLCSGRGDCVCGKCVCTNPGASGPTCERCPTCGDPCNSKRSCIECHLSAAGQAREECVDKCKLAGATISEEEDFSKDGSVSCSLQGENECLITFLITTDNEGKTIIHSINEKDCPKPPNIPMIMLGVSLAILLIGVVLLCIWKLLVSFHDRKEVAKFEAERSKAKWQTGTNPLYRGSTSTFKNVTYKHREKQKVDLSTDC

B1: h2A2 HALC (antibody, V domains shown)
VH: QFQLVQSGAEVKKPGASVKVSCKASGYSFTDYNVNWVRQAPGQGLEWMGVINPKYGTTRYNQKFKGRVTMTRDTSTSTVYMELSSLRSEDTAVYYCTRGLNAWDYWGQGTLVTVSS
VL: DIQMTQSPSSLSASVGDRVTITCGASENIYGALNWYQQKPGKAPKLLIYGATNLATGVPSRFSGSGSGRDYTFTISSLQPEDIATYYCQNVLTTPYTFGQGTKLEIKR
B2: h2A2 HCLC (antibody, V domains shown)
VH: QFQLVQSGAEVKKPGASVKVSCKASGYSFTDYNVNWVRQAPGQGLEWIGVINPKYGTTRYNQKFKGRATLTVDKSTSTAYMELSSLRSEDTAVYYCTRGLNAWDYWGQGTLVTVSS
VL: DIQMTQSPSSLSASVGDRVTITCGASENIYGALNWYQQKPGKAPKLLIYGATNLATGVPSRFSGSGSGRDYTFTISSLQPEDIATYYCQNVLTTPYTFGQGTKLEIKR
B3: h2A2 HALD (antibody, V domains shown)
VH: QFQLVQSGAEVKKPGASVKVSCKASGYSFTDYNVNWVRQAPGQGLEWMGVINPKYGTTRYNQKFKGRVTMTRDTSTSTVYMELSSLRSEDTAVYYCTRGLNAWDYWGQGTLVTVSS
VL: DIQMTQSPSSLSASVGDRVTITCGASENIYGALNWYQQKPGKAPKLLIYGATNLADGVPSRFSGSGSGTDYTFTISSLQPEDIATYYCQNVLTTPYTFGQGTKLEIKR
B4: h2A2 HALF (antibody, V domains shown)
VH: QFQLVQSGAEVKKPGASVKVSCKASGYSFTDYNVNWVRQAPGQGLEWMGVINPKYGTTRYNQKFKGRVTMTRDTSTSTVYMELSSLRSEDTAVYYCTRGLNAWDYWGQGTLVTVSS
VL: DIQMTQSPSSLSASVGDRVTITCQASENIYGALNWYQQKPGKAPKLLIYGATNLATGVPSRFSGSGSGTDYTFTISSLQPEDIATYYCQNVLTTPYTFGQGTKLEIKR
B5: h2A2 HCLF (antibody, V domains shown)
VH: QFQLVQSGAEVKKPGASVKVSCKASGYSFTDYNVNWVRQAPGQGLEWIGVINPKYGTTRYNQKFKGRATLTVDKSTSTAYMELSSLRSEDTAVYYCTRGLNAWDYWGQGTLVTVSS
VL: DIQMTQSPSSLSASVGDRVTITCQASENIYGALNWYQQKPGKAPKLLIYGATNLATGVPSRFSGSGSGTDYTFTISSLQPEDIATYYCQNVLTTPYTFGQGTKLEIKR
B6: h2A2 HALH (antibody, V domains shown)
VH: QFQLVQSGAEVKKPGASVKVSCKASGYSFTDYNVNWVRQAPGQGLEWMGVINPKYGTTRYNQKFKGRVTMTRDTSTSTVYMELSSLRSEDTAVYYCTRGLNAWDYWGQGTLVTVSS
VL: DIQMTQSPSSLSASVGDRVTITCGASENIYGALNWYQQKPGKAPKLLIYGATNLADGVPSRFSGSGSGRDFTFTISSLQPEDIATYYCQNVLTTPYTFGQGTKLEIKR
B7: h2A2 HALE (antibody, V domains shown)
VH: QFQLVQSGAEVKKPGASVKVSCKASGYSFTDYNVNWVRQAPGQGLEWMGVINPKYGTTRYNQKFKGRVTMTRDTSTSTVYMELSSLRSEDTAVYYCTRGLNAWDYWGQGTLVTVSS
VL: DIQMTQSPSSLSASVGDRVTITCQASENIYGALNWYQQKPGKAPKLLIYGATNLADGVPSRFSGSGSGRDYTFTISSLQPEDIATYYCQNVLTTPYTFGQGTKLEIKR
B8: h2A2 HCLD (antibody, V domains shown)
VH: QFQLVQSGAEVKKPGASVKVSCKASGYSFTDYNVNWVRQAPGQGLEWIGVINPKYGTTRYNQKFKGRATLTVDKSTSTAYMELSSLRSEDTAVYYCTRGLNAWDYWGQGTLVTVSS
VL: DIQMTQSPSSLSASVGDRVTITCGASENIYGALNWYQQKPGKAPKLLIYGATNLADGVPSRFSGSGSGTDYTFTISSLQPEDIATYYCQNVLTTPYTFGQGTKLEIKR

Biological target: T1, human αvβ6 on 293F:huβ6 cells
Experiment: competition binding on 293F cells; 2nM m2A2-AF647 competitor
Binder B1 has an EC50 of 9 nM. With B2 the EC50 was 3 nM. With B3 the EC50 was 12 nM. Work on B4 yielded an EC50 of 14 nM. B5 was tested, and the EC50 was 6 nM. Work on B6 yielded an EC50 of 46 nM. B7 gave an EC50 of 5 nM. With B8 the EC50 was 5 nM.
